The chains are these.
B1: HDV Ribozyme (parent)
chain: GGCCGGCAUGGUCCCAGCCUCCUCGCUGGCGCCGGCUGGGCAACAUUCCGAGGGGACCGUCCCCUCGGUAAUGGCGAAUGGGACCCA

The series covers variants of B1. Put plainly: self-cleavage, relative activity (ratio to wild type); higher = more cleavage; co-transcriptional.
Consider G2A A87C, for which the self-cleavage is 0.273.

Consider G2A A87G, for which the self-cleavage came out at 0.145.

On to G2A A87U, for which the self-cleavage was found to be 0.237.

As for G2U A77U, the self-cleavage turned out to be 0.0244.

In the case of G2U A77G, the self-cleavage came out at 0.

For the variant G2C A87C, the self-cleavage worked out at 0.0523.

On to G2C A87U, for which the self-cleavage is 0.0825.

Regarding G2C A87G, the self-cleavage worked out at 0.0671.

Consider G2A G74A, for which the self-cleavage stood at 0.0457.

As to G2C G59C, the self-cleavage came to 0.0923.

With G2A C44G, the self-cleavage is 0.0185.

With G2A C44A, the self-cleavage is 0.0875.

Take G2A C62G: the self-cleavage came to 0.086.

Consider G2A C62A, for which the self-cleavage was determined as 0.137.

Consider G2C C15U, for which the self-cleavage was found to be 0.0563.

For G2A G29C, the self-cleavage amounted to 0.0292.

As to G2A G29U, the self-cleavage was 0.0205.

As to G2A U9G, the self-cleavage is 0.192.

As to G2A U9C, the self-cleavage was 0.113.

Consider G2U C19U, for which the self-cleavage was found to be 0.0155.

As to G2U C19A, the self-cleavage is 0.0165.

As for G2U C19G, the self-cleavage is 0.

As for G2A C58G, the self-cleavage stood at 0.151.

With G2C G74A, the self-cleavage was 0.113.

G2C G74U: the self-cleavage was determined as 0.1.

Regarding G2C G74C, the self-cleavage was 0.0308.

Take G2A C32A: the self-cleavage worked out at 0.0507.

As to G2A C32G, the self-cleavage was 0.0441.

With G2A A16G, the self-cleavage was 0.237.

As for G2A A16C, the self-cleavage stood at 0.0733.

As for G2A G68A, the self-cleavage came to 0.185.

Take G2A G68U: the self-cleavage came out at 0.0645.

As for G2A G68C, the self-cleavage was 0.177.

For G2C C64G, the self-cleavage came to 0.0804.

G2C C64A: the self-cleavage came to 0.0652.

Take G2C C64U: the self-cleavage stood at 0.0219.

For G2U C22A, the self-cleavage came out at 0.035.

In the case of G2U C22G, the self-cleavage worked out at 0.0193.

Turning to G2U C22U, the self-cleavage was found to be 0.032.

As for G2A A43U, the self-cleavage amounted to 0.0203.

As to G2A U46A, the self-cleavage worked out at 0.0601.

On to G2A U46G, for which the self-cleavage turned out to be 0.0817.

For G2A U47A, the self-cleavage amounted to 0.0314.

In the case of G2A C21U, the self-cleavage worked out at 0.0161.

As for G2A C21A, the self-cleavage amounted to 0.0158.

G2C A71G: the self-cleavage was 0.021.

For the variant G1U U27G, the self-cleavage came to 0.522.

Regarding G2A C13U, the self-cleavage was 0.058.

Take G2U C48G: the self-cleavage worked out at 0.0615.

For the variant G2U C48U, the self-cleavage was 0.0563.

With G2C C4U, the self-cleavage was 0.475.

Regarding G2C C33U, the self-cleavage came out at 0.0608.

For the variant G2C C33G, the self-cleavage worked out at 0.0514.

Take G2U C4G: the self-cleavage worked out at 0.0228.

As to G2A U69G, the self-cleavage amounted to 0.219.

With G2A U69C, the self-cleavage was 0.332.

As to G2A G55C, the self-cleavage is 0.194.

In the case of G2A G55U, the self-cleavage is 0.271.

Regarding G2A G55A, the self-cleavage stood at 0.191.

Turning to G2A A8G, the self-cleavage came to 0.0773.

With G2C G38A, the self-cleavage is 0.0747.

Turning to G2C G38C, the self-cleavage came out at 0.0475.

With G2C G5U, the self-cleavage is 0.145.

Turning to G2C G5C, the self-cleavage was determined as 0.237.

As for G2U A51U, the self-cleavage is 0.0799.

For the variant G2C G39U, the self-cleavage worked out at 0.0246.

With G2C A42U, the self-cleavage came to 0.0475.

G2C U72A: the self-cleavage amounted to 0.106.

As to G2C U27G, the self-cleavage stood at 0.0437.

As for G2C U27C, the self-cleavage turned out to be 0.0496.

With G2A G54U, the self-cleavage was 0.127.

For the variant G2A G54C, the self-cleavage was 0.296.

Take G2A G54A: the self-cleavage was 0.194.

Regarding G2C U69C, the self-cleavage is 0.175.

On to G2C U65A, for which the self-cleavage amounted to 0.

Regarding G2C U65C, the self-cleavage turned out to be 0.14.

Turning to G2A C75A, the self-cleavage is 0.0542.

With G2A C75G, the self-cleavage was 0.0615.

For G2C C61A, the self-cleavage worked out at 0.0391.

Turning to G2C U23A, the self-cleavage came to 0.

Turning to G2C U23G, the self-cleavage amounted to 0.0268.

For the variant G2A G76A, the self-cleavage is 0.0391.

In the case of G2A G76C, the self-cleavage worked out at 0.225.

G2A G53U: the self-cleavage is 0.145.

With G2A C64G, the self-cleavage is 0.0923.

For G2C G76A, the self-cleavage was found to be 0.13.

On to G2C G76C, for which the self-cleavage was determined as 0.0747.

Consider G1U U12G, for which the self-cleavage came out at 0.369.

For the variant G2U C62A, the self-cleavage stood at 0.0166.

In the case of G2U C62G, the self-cleavage turned out to be 0.136.

On to G2C C75G, for which the self-cleavage amounted to 0.0314.

With G2C C75A, the self-cleavage was determined as 0.

G2U C33U: the self-cleavage stood at 0.0422.

Consider G2C G73A, for which the self-cleavage is 0.0252.

In the case of G2C G73C, the self-cleavage is 0.106.

For G2U A71U, the self-cleavage is 0.0287.

For the variant G2C C66G, the self-cleavage was 0.0978.

In the case of G2U C49U, the self-cleavage turned out to be 0.0821.

As for G2U C49G, the self-cleavage was found to be 0.0329.

Turning to G2U C30G, the self-cleavage was 0.0601.

As to G2U C30U, the self-cleavage came out at 0.025.

On to G2U C24U, for which the self-cleavage is 0.0784.

Turning to G2U C24G, the self-cleavage stood at 0.0225.

As to G2C G68A, the self-cleavage amounted to 0.0504.

Regarding G2C G68U, the self-cleavage came to 0.0449.

As to G2C G68C, the self-cleavage stood at 0.0244.

In the case of G2C C44A, the self-cleavage worked out at 0.0449.

Consider G2C C44U, for which the self-cleavage came to 0.0453.

Regarding G2C C44G, the self-cleavage was found to be 0.0656.

With G2A G34U, the self-cleavage stood at 0.0449.

With G2A C33U, the self-cleavage turned out to be 0.035.

In the case of G2C U37C, the self-cleavage was 0.17.

As to G2A C3A, the self-cleavage came out at 0.0478.

As for G2A C3U, the self-cleavage amounted to 0.567.

For the variant G2C G67A, the self-cleavage stood at 0.0449.

For G2U A8G, the self-cleavage turned out to be 0.0272.

In the case of G2U A8U, the self-cleavage amounted to 0.134.

With G2C U20A, the self-cleavage worked out at 0.0361.

With G2A C22U, the self-cleavage stood at 0.0183.

Turning to G2A C22A, the self-cleavage was 0.0205.

On to G2C G34U, for which the self-cleavage turned out to be 0.0966.

G2C G34A: the self-cleavage came to 0.0504.

G2A G67A: the self-cleavage came out at 0.11.

Consider G2A G28A, for which the self-cleavage was 0.0107.

Take G2A G52U: the self-cleavage was found to be 0.201.

Turning to G2C C41G, the self-cleavage was 0.103.

Regarding G2C C41A, the self-cleavage worked out at 0.

With G2A A45C, the self-cleavage was found to be 0.0723.

For G2A A45G, the self-cleavage was determined as 0.0779.

Regarding G2A A45U, the self-cleavage turned out to be 0.111.

Take G2C G11A: the self-cleavage turned out to be 0.0455.

For the variant G2U C26A, the self-cleavage was found to be 0.0357.

Consider G2A C18U, for which the self-cleavage was 0.0239.

For the variant G2A C18A, the self-cleavage was 0.0236.

For G2A C18G, the self-cleavage is 0.0817.

For the variant G1U U23C, the self-cleavage is 0.665.

With G1U U23G, the self-cleavage came to 0.277.

On to G1U U23A, for which the self-cleavage worked out at 0.203.

With G2A A83C, the self-cleavage is 0.0583.

With G2A A83G, the self-cleavage was 0.122.

On to G2A C57A, for which the self-cleavage was found to be 0.258.

For G2A C57G, the self-cleavage came out at 0.158.

In the case of G2A C61A, the self-cleavage was found to be 0.351.

On to G2A C61G, for which the self-cleavage came to 0.102.

For the variant G2A C61U, the self-cleavage came out at 0.149.

With G2A G11C, the self-cleavage worked out at 0.0519.

In the case of G2C U79C, the self-cleavage amounted to 0.101.

Take G2C U79G: the self-cleavage was determined as 0.

Regarding G2A C24U, the self-cleavage came out at 0.101.

As to G2A A56G, the self-cleavage amounted to 0.242.

Turning to G2A A71C, the self-cleavage worked out at 0.13.

For the variant G2A A71G, the self-cleavage was determined as 0.241.

Turning to G2C C58A, the self-cleavage came to 0.

For G2C C58G, the self-cleavage is 0.13.

On to G2A C66A, for which the self-cleavage came out at 0.194.

Turning to G2A C66G, the self-cleavage was 0.213.

For the variant G2C C62U, the self-cleavage was determined as 0.0841.

As for G2A G82C, the self-cleavage was found to be 0.0639.

In the case of G2A G80U, the self-cleavage worked out at 0.0227.

Take G2A G40U: the self-cleavage came out at 0.0799.

As for G2A G40A, the self-cleavage amounted to 0.136.

Take G2A G40C: the self-cleavage worked out at 0.

G2C G55A: the self-cleavage is 0.0941.

For the variant G2U C18G, the self-cleavage amounted to 0.0692.

For G2U C64G, the self-cleavage was 0.0791.

On to G2A C41U, for which the self-cleavage amounted to 0.198.

With G2A C41G, the self-cleavage was found to be 0.0645.

Values taken from the RNAGym collection of RNA variant scans (doi:10.7554/elife.80360).
